# Substitutions are numbered along the chain they refer to.
# B1: 52F9 (hybridoma antibody) (antibody, V domains shown)
# VH: QVQLVESGGGVVQAGRSLRLSCAASGFTFSNYGIHWVRQAPGKGLEWVGVIWHDGSIKNYADFVKGRFTISRDNSEDTLYLQMNSLRAEDTAVYYCAREQGNYYGWGSYKAFDIWGQGTMVTVSS
# VL: DIQLTQSPSFLSVFVGDRVTITCRASQGISNYLAWYQQKPGKAPELLLYATSTLQSGVPSRLSGSGSGTEFTLTLSSLQPEDFATYYCQQVYSFPYTFGQGTKLEIK
# notes: hybridoma mAb from H2L2 mouse (human variable, rat constant regions)
# B2: 27F11 (hybridoma antibody) (antibody, V domains shown)
# VH: QVQLVESGGGVVQPGRSLRLSCAASGFTFSRHGMHWVRQAPGKGLEWVAVIYYDGSNKYYVDSVKGRFTISRDNSKNTLDLQMNSLRAEDTAVYYCARRSITWNGAFDIWGQGTMVTVSS
# VL: DIQMTQSPSTLSASVGDRVTISCRASQSISSWLAWYQQKPGKAPKLLIYKASSLESGVPSRFSGSGSGTEFTLTISSLQPDDFATYYCQQYNSAYTFGQGTKLEIK
# notes: as for B1
# B3: 17B6 (hybridoma antibody) (antibody, V domains shown)
# VH: B2 VH with A23E, Y52F, N57Q, K58N, V61A, K65R, D80S, N84D, A106G, S120P
# VL: B2 VL with S22T, T74A, S93R, A94F
# notes: as for B1
# Target: T1, hCD19-his (human CD19 recombinant protein, Pro20-Lys291, His tag at C-terminus) (human, UniProt P15391 20-291)
# T1 construct: range 20-291; also called human CD19-His
# T1 sequence (looked up): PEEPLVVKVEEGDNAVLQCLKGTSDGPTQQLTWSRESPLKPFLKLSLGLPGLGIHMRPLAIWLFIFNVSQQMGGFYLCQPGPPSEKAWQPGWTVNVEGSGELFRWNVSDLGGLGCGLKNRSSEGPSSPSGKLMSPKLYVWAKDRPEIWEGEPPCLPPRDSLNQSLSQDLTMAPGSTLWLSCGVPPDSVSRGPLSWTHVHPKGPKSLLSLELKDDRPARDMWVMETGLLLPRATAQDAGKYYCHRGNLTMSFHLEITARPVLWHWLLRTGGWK
# Experiment: ELISA, coated hCD19-His
# Experimental: The antibodies were screened by ELISA according to Example 2. Briefly, […] of hCD19-His (ACRO) were spread and incubated. The purified antibodies were serially diluted to bind the incubated antigen. The binding signal of each antibody could be detected with HRP-labeled goat anti-rat Fc antibody.
# Graphpad Prism software was used to calculate the fitting data.
row,Binder,EC50 [µg/mL]
1,B1,0.0592
2,B2,0.0672
3,B3,0.176

# Target: T2, CD19 expressed by Nalm6 cells (UniProt P15391 20-556)
# T2 chain: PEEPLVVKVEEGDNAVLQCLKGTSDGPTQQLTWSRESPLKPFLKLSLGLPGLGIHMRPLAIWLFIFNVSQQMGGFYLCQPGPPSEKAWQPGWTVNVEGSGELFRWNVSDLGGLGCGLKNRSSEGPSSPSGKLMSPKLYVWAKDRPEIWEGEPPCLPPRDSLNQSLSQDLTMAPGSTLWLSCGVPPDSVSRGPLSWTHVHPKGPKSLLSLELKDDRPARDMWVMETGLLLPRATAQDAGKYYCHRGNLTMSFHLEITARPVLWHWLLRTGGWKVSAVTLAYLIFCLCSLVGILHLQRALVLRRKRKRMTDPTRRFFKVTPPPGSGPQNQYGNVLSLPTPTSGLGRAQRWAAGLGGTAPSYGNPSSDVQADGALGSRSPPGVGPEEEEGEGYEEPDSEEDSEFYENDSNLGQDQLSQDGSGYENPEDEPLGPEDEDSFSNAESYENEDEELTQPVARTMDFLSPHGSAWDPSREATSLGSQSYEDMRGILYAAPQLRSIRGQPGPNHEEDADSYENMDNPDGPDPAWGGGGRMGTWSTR
# Experiment: flow cytometry
row,Binder,EC50 [µg/mL]
1,B1,1.87
2,B2,57.3
3,B3,36.9

# Target: T3, hVISTA-his (human, UniProt Q9H7M9 33-194)
# T3 construct: Coated antigen of the specificity ELISA
# T3 sequence (looked up): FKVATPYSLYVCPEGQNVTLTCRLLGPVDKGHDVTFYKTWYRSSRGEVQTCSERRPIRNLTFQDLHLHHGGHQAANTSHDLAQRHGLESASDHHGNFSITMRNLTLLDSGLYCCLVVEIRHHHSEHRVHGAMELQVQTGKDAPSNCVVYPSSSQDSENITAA
# Experiment: ELISA, coated antigen 0.5 µg/ml
# Experimental: (§1) According to the method described in Example 4, 0.5 μg/ml of hCD19-His, hVISTA-his, hPD-L1, hCD40, h41BB and hLAG3 were spread and incubated respectively, and 2μg/ml of purified antibodies were added to bind the incubated antigen. The binding signal of each antibody could be detected with HRP-labeled goat anti-rat Fc antibody.
row,Binder,binding result
1,B1,no binding (tested: 2 µg/ml)
2,B2,no binding (tested: 2 µg/ml)
3,B3,no binding (tested: 2 µg/ml)

# Target: T4, h41BB (human, UniProt Q07011 24-186)
# T4 construct: Coated antigen of the specificity ELISA
# Experiment: ELISA, coated antigen 0.5 µg/ml
# Experimental: as §1
row,Binder,binding result
1,B1,no binding (tested: 2 µg/ml)
2,B2,no binding (tested: 2 µg/ml)
3,B3,no binding (tested: 2 µg/ml)

# Target: T5, hPD-L1 (human, UniProt Q9NZQ7 19-238, limits assumed)
# T5 construct: Coated antigen of the specificity ELISA
# Experiment: ELISA, coated antigen 0.5 µg/ml
# Experimental: as §1
# T5 sequence (Q9NZQ7 19-238 limits assumed): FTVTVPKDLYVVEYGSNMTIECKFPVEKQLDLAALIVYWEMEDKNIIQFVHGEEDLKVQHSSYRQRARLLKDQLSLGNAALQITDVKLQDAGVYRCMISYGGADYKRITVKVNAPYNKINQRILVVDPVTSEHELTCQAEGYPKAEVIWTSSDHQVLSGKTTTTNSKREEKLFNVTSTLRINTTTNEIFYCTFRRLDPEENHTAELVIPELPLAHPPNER
row,Binder,binding result
1,B1,no binding (tested: 2 µg/ml)
2,B2,no binding (tested: 2 µg/ml)
3,B3,no binding (tested: 2 µg/ml)

# Target: T6, hCD40 (human, UniProt P25942 21-193)
# T6 construct: Coated antigen of the specificity ELISA
# Experiment: ELISA, coated antigen 0.5 µg/ml
# Experimental: as §1
# T6 sequence (P25942 21-193 limits assumed): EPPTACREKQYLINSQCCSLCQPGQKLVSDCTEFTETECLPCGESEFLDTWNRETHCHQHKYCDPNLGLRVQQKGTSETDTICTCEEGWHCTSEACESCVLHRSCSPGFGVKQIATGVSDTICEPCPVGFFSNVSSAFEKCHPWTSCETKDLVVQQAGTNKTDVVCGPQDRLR
row,Binder,binding result
1,B1,no binding (tested: 2 µg/ml)
2,B2,no binding (tested: 2 µg/ml)
3,B3,no binding (tested: 2 µg/ml)

# Target: T7, hLAG3 (human, UniProt P18627 23-450, limits assumed)
# T7 construct: Coated antigen of the specificity ELISA
# T7 sequence (looked up): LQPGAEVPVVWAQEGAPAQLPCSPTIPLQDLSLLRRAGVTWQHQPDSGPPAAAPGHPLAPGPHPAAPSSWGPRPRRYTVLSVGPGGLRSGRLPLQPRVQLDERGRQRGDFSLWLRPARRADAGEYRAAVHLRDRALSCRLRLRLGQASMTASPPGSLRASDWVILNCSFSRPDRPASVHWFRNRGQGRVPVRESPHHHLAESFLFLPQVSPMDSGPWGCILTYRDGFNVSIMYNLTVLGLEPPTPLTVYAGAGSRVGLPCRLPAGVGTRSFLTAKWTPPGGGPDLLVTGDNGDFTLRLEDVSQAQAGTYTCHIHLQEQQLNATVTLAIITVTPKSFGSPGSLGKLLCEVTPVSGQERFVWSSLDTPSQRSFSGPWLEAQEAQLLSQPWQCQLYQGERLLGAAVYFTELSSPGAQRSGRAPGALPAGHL
# Experiment: ELISA, coated antigen 0.5 µg/ml
# Experimental: as §1
row,Binder,binding result
1,B1,no binding (tested: 2 µg/ml)
2,B2,no binding (tested: 2 µg/ml)
3,B3,no binding (tested: 2 µg/ml)

# Target: T8, CD19 expressed by Nalm6 cells (UniProt P15391 20-556, limits assumed)
# T8 construct: whole, on cells; Endogenous CD19 on tumor cell lines; also called Nalm6/GL; CD19 antigen on RAJI-GL and NALM6-GL tumor cells
# T8 sequence (looked up): T2 chain
# Experiment: flow cytometry on Nalm6 cells
# Experimental: The CD19-expressing tumor cells Nalm6 in logarithmic growth phase were collected and resuspended in PBS at a cell density of 10⁵/well, 100 μl/well. The diluted CD19 antibodies were added into the well and incubated at 4° C. for 1 hour. The cells were washed three times with flow cytometry wash buffer. Anti-rat IgG-Alexa Fluor 647 (Abcam, Cat #ab150163) was added and incubated at 4° C. for 1 hour. The cells were washed three times with flow cytometry wash buffer. The samples were analyzed by flow cytometry. The results are shown in FIG. 3 and Table 4, as follows: […]
row,Binder,Maximum mean fluorescence intensity (30 µg/ml)
1,B1,5160
2,B2,30000
3,B3,25500
